The target in assay [1] is T1, canine PD-1 antigen (canine).
T1 construct: also called cPD-1; canine Programmed Death Receptor 1
T1 chain: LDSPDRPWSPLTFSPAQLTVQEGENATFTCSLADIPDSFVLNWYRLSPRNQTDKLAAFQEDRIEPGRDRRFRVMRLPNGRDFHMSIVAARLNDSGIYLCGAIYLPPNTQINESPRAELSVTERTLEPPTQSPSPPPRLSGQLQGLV
Description: SPR (Biacore T200), canine PD-1 amine-coupled to chip, antibody as analyte, 1:1 fit. The text has this: (§1) Approximately 70 resonance units (RU) of the canine PD-1 antigen was immobilized directly by amine coupling. Affinity measurements were made via label-free surface plasmon resonance based technology (e.g., Biacore® T200) with an association time of 300 seconds, a dissociation time of 1200 seconds, and at concentrations of 50, 100, 200 (×2) 400, and 800 nanomolar (nM). A fitting model of 1:1 binding was used. […] Moreover, the mouse anti-canine PD-1 monoclonal antibody and the corresponding caninized mouse anti-canine PD-1 monoclonal antibody from the same clone yielded strikingly similar Kd values (see Table 5 below).

Assay [2] addresses T1, canine PD-1 antigen. Description: SPR (Biacore T200), canine PD-1 amine-coupled to chip, antibody as analyte, 1:1 fit; off-rate below detection limit.
Text: as §1
(In SPR one partner is held on a chip, and binding of the other changes the refractive index at the surface.)

B1: Murine 3B6 (antibody, V domains shown)
VH: QIQLVQSGPELKKPGETVKISCKASGYTFTTYGMSWVKQAPGKGLKWMGWINIYSGIPTYADDFKGRFAFSLETSASTAYLQIDNLKNEDTATYFCARFDGPDYWGQGTTLTVSS
VL: DIVMTQSPSSLAVSVGRKVTMSCKSSQSLLNSVNQKNYLAWYQQKPGQSPKVLVYFASARVSGVPDRFIGSGSGTDFTLAISSVQAEDLTTYFCQQYFSTPLTFGAGTKLELK
notes: Mouse monoclonal IgG from hybridoma; also called mAb 3B6
A word on the Kd: it is a measure of binding affinity in units of concentration. A higher Kd goes with lower affinity. Broadly, the koff is the first-order rate constant of dissociation. What is called kon is the rate constant with which the complex forms. Lower therefore signals slow association. B1: in the assay with canine PD-1 antigen [1], the Kd turned out to be 2 nM, the koff came to 3.4e-05 s⁻¹ and the kon worked out at 18000 M⁻¹ s⁻¹.

B2: Murine 2H9 (antibody, V domains shown)
VH: EVQLQQSVAELVRPGASVKLSCTASGFNIKNTYMHWIKQRPEQGLEWIGRIAPANVDTKYAPKFQGKATITADTSSNTAYMQLSTLTSEDTAIYYCVLIYYDYDGDIDVWGTGTTVTVSS
VL: DIQMNQSPSSLSASLGDTITITCHASQNINVWLSWYQQRPGNIPKLLIYKASHLHTGVPSRFSGSGSGTGFTLTISSLQPEDIATYYCQQGQSWPLTFGAGTKLELK
notes: also called mAb 2H9
For the molecule B2, in the assay with canine PD-1 antigen [2], the Kd is no more than 0.2 nM and the koff was no more than 5e-06 s⁻¹. For the same molecule, the kon with canine PD-1 antigen [1] came to 23000 M⁻¹ s⁻¹.

For the origin of these results see patent US20160333096A1 (published 2016).
